How the values were obtained:
dimeric LDH-Htr [1] = experiment: MST, peptide binding to LDH-Htr; set-up: species or system human; conditions: 1.5 s MST on time, n = 3, labeled LDH-Htr 100 nM, 50 mM sodium phosphate pH 7.6, 100 mM NaCl, 0.01% Tween-20, LP-22 value 'estimated'
Description: MST measurements were performed on a NanoTemper Monolith NT.115 instrument (NanoTemper Technologies) using red dye–N-Hydroxysuccinimide fluorescent labeling. LDH-Htr purified to homogeneity was labeled with the Monolith red dye–N-Hydroxysuccinimide second-generation labeling dye (NanoTemper Technologies), according to the supplied protocol. Measurements were performed in 50 mM sodium phosphate, pH 7.6, and 100 mM NaCl containing 0.01% Tween-20 in standard-treated capillaries (NanoTemper Technologies). The final concentration of proteins in the assay was 100 nM. Ligands were titrated in 1:1 dilutions following manufacturer's recommendations. Experiments were performed in triplicates using 40% light-emitting diode power, high MST power, laser on time 20 s and laser off time 3 s. Peptides were evaluated for their thermophoretic pattern, and Kds were extracted from raw data at a 1.5 s MST on time following the manufacturer's instructions.

dimeric LDH-Htr [2] = conditions: LDH-Htr 15 μM; peptide 500 μM; n = 3; 50 mM sodium phosphate, 100 mM NaCl, pH 7.6; stabilization
Description: Solutions of proteins (LDH-1, LDH-5, or LDH-Htr) with peptides were evaluated on a Tycho NT.6 device. Evaluations were performed in a 50 mM sodium phosphate and 100 mM NaCl (pH 7.6) buffer. According to standard manufacturer's procedures, samples were poured into capillaries and heated up to 95 °C in 3 min, while following fluorescence emission at 330 and 350 nm. Melting temperatures were extracted from the derivative of the 350/330 nm fluorescence ratios upon increasing temperature.

tetrameric LDH-5 = tetrameric LDH-5 (Homo sapiens, UniProt P00338); experiment: nanoDSF thermal shift of LDH-5 with peptide; assay type: binding
dimeric LDH-Htr [3] = experiment: WaterLOGSY NMR with LDH-Htr; assay type: binding, human; conditions: LDH-Htr 15 μM; LP-22 400 μM; 50 mM sodium phosphate pH 7.6, 100 mM NaCl, 10% heavy water; 277 K
Description: (§1) Human LDH-H (full length and truncated)-6-His proteins for 1D NMR were expressed and purified from E. coli, as described previously. All experiments were performed on an Ascend Avance III 600 MHz system equipped with a broadband cryoprobe (Bruker) following a previously described procedure ([16]).
(§2) For WaterLOGSY NMR studies, samples were prepared in 10% heavy water containing 50 mM sodium phosphate buffer, pH 7.6, and 100 mM NaCl. The concentration of LDHs was ranging from 15 to 20 μM of monomer. Ligand binding was detected using a WaterLOGSY ephogsygpno.2 avance-version sequence with a 1 s mixing time, 4096 scans were collected at 277 K to yield a 16 K points free induction decay. Water signal suppression was achieved using an excitation-sculpting scheme, and a 50 ms spinlock was used to suppress protein background signals.

tetrameric LDH-1 = experiment: WaterLOGSY NMR with LDH-1; assay type: binding, human; conditions: LDH-1 15 μM; LP-22 400 μM; 50 mM sodium phosphate pH 7.6, 100 mM NaCl, 10% heavy water; 277 K
Description: as §1, §2

LDH-H variants [4] = experiment: nanoDSF thermal denaturation of LDH-H variants; assay type: physicochemical, human; conditions: for nanoDSF denaturation pattern / Ratio 350/330 nm / Tm: n = 6; for nanoDSF denaturation pattern: in words; for Ratio 350/330 nm: nanoDSF fluorescence emission ratio; for Ratio 350/330 nm / Tm: pH 7.6; for Tm: Tycho NT.6, protein 25 to 65 μM, 50 mM sodium phosphate, 100 mM NaCl, 20% glycerol, mean ± SEM
Description: Solutions of proteins (LDH-H, LDH-Htr or variants), stored in a 50 mM sodium phosphate, 100 mM NaCl, and 20% glycerol, pH 7.6, were evaluated on a Tycho NT.6 device (NanoTemper Technologies) using concentrations ranging from 25 to 65 μM.

LDH-H oligomeric state = experiment: Mass photometry of LDH-H, LDH-Htr and variants; assay type: physicochemical, human; conditions: for Oligomeric state in solution: in words; for Molecular weight (main oligomeric state): mean ± SD, one measurement, repeated at least 3 times with similar results, 1 μl of 1 μM stock into 16 μl PBS; for Relative intensity of dimer peak / Relative intensity of tetramer peak / Molecular weight of dimer peak / Molecular weight of tetramer peak: peak label in figure; for Molecular weight of dimer peak: theoretical dimer 78 kDa (LDH-H), 73.2 kDa (LDH-Htr); for Molecular weight of tetramer peak: theoretical tetramer 155 kDa (LDH-H)
Description: Protein landing was recorded using a Refeyn OneMP (Refeyn Ltd) MP system by adding 1 μl of the protein stock solution (1 μM) directly into a 16 μl drop of filtered PBS solution. Movies were acquired for 60 s (6.000 frames) with the AcquireMP (version 2.1.1; Refeyn Ltd) software using standard settings. Data were analyzed using default settings on DiscoverMP (version 2.1.1; Refeyn Ltd) ([44]). Contrast-to-mass calibration was performed prior to the experiments using a mix of proteins with molecular weights of 66, 146, 480, and 1048 kDa.

LDH-H variants [5] = experiment: Intrinsic tryptophan fluorescence spectra of variants; assay type: physicochemical, human; conditions: variant 1.3 μM; λexc 286 nm; n = 6; pH 7.6
Description: All spectrophotometric experiments were performed with opaque 96-well plates using a Spectramax m2e spectrophotometer (Molecular Devices) following previously described procedures ([16]).
Full tryptophan fluorescence spectra were recorded using an excitation wavelength of 286 nm and recording the emission spectra from 320 to 400 nm at room temperature. The raw fluorescence of each experiment was subtracted to a corresponding control experiment without the protein. […] For dissociation in subunits, increasing amounts of guanidinium hydrochloride ranging from 0.3 to 2 M were put in contact with the studied proteins (1.3 μM), and fluorescence spectra were recorded afterward.

EC50 (tetrameric LDH-5; read-out: EC50 (destabilization of tetrameric LDH, ΔTm vs peptide concentration))	Compound	Kd (dimeric LDH-Htr [1])	ΔTm of dimeric LDH-Htr (dimeric LDH-Htr [2])	Dependence of LDH destabilization on protein concentration (tetrameric LDH-5; nanoDSF, Fig. S2)	WaterLOGSY saturation transfer with dimeric LDH-Htr (dimeric LDH-Htr [3])	WaterLOGSY saturation transfer with tetrameric LDH-1 (tetrameric LDH-1)	nanoDSF denaturation pattern (LDH-H variants [4])	Ratio 350/330 nm (LDH-H variants [4])	Tm (LDH-H variants [4]; nanoDSF)	Oligomeric state in solution (LDH-H oligomeric state)	Molecular weight (main oligomeric state) (LDH-H oligomeric state)	Relative intensity of dimer peak (LDH-H oligomeric state)	Relative intensity of tetramer peak (LDH-H oligomeric state)	Molecular weight of dimer peak (LDH-H oligomeric state)	Molecular weight of tetramer peak (LDH-H oligomeric state)	Tryptophan fluorescence intensity compared with LDH-1 (LDH-H variants [5])	Tm difference versus LDH-Htr (LDH-H variants [4]; nanoDSF, higher than LDH-Htr)
	CSCC[C@H](NC(=O)[C@H](CCC(=O)O)NC(=O)CNC(=O)[C@H](CCCCN)NC(=O)[C@H](CC(C)C)NC(=O)[C@H](CCCCN)NC(=O)[C@H](CC(=O)O)NC(=O)[C@H](CCC(=O)O)NC(=O)[C@@H](N)CC(C)C)C(=O)N[C@@H](CCSC)C(=O)N[C@@H](CC(=O)O)C(=O)N[C@@H](CC(C)C)C(=O)N[C@@H](CCC(N)=O)C(=O)N[C@@H](Cc1c[nH]cn1)C(=O)NCC(=O)N[C@@H](CO)C(=O)N[C@@H](CC(C)C)C(=O)N[C@@H](Cc1ccccc1)C(=O)N[C@@H](CC(C)C)C(=O)N[C@@H](CCC(N)=O)C(=O)N[C@H](C(=O)N1CCC[C@H]1C(N)=O)[C@@H](C)O [LP-22]	156 µM	2.8 °C	an increasing amount of subunit reverted the effect	undergoes a saturation transfer with dimeric LDH-Htr	not with the tetrameric LDH-1											
	F72A: LDH-H recombinant alanine variant						denaturation patterns comparable to dimeric LDH-Htr	0.94	53.9 ± 0.1 °C	behaving mainly as dimers in solution	70 ± 17 kDa	79%	19%	70 kDa	141 kDa	decays in fluorescence intensity characteristic of the dimeric forms of LDHs	
	L71A: LDH-H recombinant alanine variant						a lower initial ratio and a red shift	0.90	67.1 ± 0.1 °C	behaving as a mixture of tetramers and dimers	148 ± 12 kDa	36%	56%	72 kDa	148 kDa		10 °C
	E62A: LDH-H recombinant alanine variant						denaturation patterns comparable to dimeric LDH-Htr	0.95	58.9 ± 0.1 °C	behaving mainly as dimers in solution	77 ± 18 kDa	77%		77 kDa	145 kDa	decays in fluorescence intensity characteristic of the dimeric forms of LDHs	
262 µM	Ac-GEMMDLQHGSLFLQTP-NH2 [GP-16]	240 µM															

Source: publication PMC8010463, “Discovery of a novel lactate dehydrogenase tetramerization domain using epitope mapping and peptides” (The Journal of Biological Chemistry, 2021)
